{"source": "patent US20080206139A1", "about": "“DELIVERY SYSTEM FOR DIAGNOSTIC AND THERAPEUTIC AGENTS” (The Penn State Research Foundation, priority 2006, published 2008)", "key": {"U251 glioma cells": {"system": "U251 glioma cells", "experiment": "Flow cytometry of intracellular doxorubicin fluorescence, with or without Pgp inhibitor cyclosporine A", "format": "cell-based, Human", "conditions": "20 μM drug, 2 h", "protocol": "Flow cytometry: Flow cytometry was used to measure total intracellular doxorubicin fluorescence. In this report we refer to fluorescence intensity as intracellular drug content. 1×10^6 cells were exposed to 20 μM of drug as (a) free DXR (b) DXR encapsulated IL13 conjugated liposomes (c) DXR encapsulated unconjugated liposomes for 2 h. All drug treatments and post treatment incubations were performed in complete growth medium. The cells were washed to remove any free adherent DXR using PBS and centrifuged. Cells were released from tissue culture dishes with 0.05% trypsin/0.02% EDTA followed by PBS washing (centrifugation, 5 min 500 g) and resuspended in PBS for flow cytometry assay. The intracellular accumulation of inherently fluorescent doxorubicin was evaluated using a fluorescence activated cell analyzer. A single 15 mW argon ion laser beam (488 nm) was used to excite the fluorescence of DXR. A total of 10000 cells were analyzed for each histogram. Experiments were repeated 3 times and the fluorescence intensities of DXR were expressed in arbitrary units.\nEffect of Pgp inhibitor on the internalization of IL13 conjugated liposomes in the glioma cells: About 50000 U251 glioma cells were plated in a small petridish and were exposed to either IL13 conjugated liposomes carrying 20 μM of doxorubicin or the same concentration of free doxorubicin (20 μM) for 2 hours. […]"}, "IL-13Rα2": {"target": "T1, IL-13Rα2 (Homo sapiens, UniProt Q14627)", "T1 sequence (Q14627 27-380)": "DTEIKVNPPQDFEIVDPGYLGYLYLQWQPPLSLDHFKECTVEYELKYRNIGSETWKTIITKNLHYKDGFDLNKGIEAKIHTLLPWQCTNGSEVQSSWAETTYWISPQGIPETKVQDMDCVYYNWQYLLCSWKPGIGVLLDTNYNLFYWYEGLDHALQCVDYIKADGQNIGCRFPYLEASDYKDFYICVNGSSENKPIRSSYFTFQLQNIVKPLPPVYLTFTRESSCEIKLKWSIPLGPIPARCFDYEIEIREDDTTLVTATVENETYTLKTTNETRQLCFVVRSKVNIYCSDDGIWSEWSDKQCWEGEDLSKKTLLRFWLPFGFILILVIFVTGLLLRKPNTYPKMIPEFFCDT", "experiment": "Cytotoxicity neutralization assay with IL-13 and its mutants against cytotoxin IL13-PE38QQR", "format": "cell-based", "conditions": "100 ng/ml protein; cytotoxin IL13-PE38QQR fixed at 10 ng/ml", "protocol": "Additionally, position K105 of this region of IL-13 is mutated into a variety of amino acids and the mutants' cytotoxic neutralization potential and binding affinity towards IL-13Rα2 is determined. […] In this titered cytotoxicity neutralization experiment, higher neutralization efficiency against the IL13-PE38QQR cytotoxin, for the mutant IL13.K105R is observed (Madhankumar A. B., Mintz, A., and Debinski, W. (2004) Neoplasia (New York) 6, 15-22). IL13.K105R is able to neutralize the cytotoxicity to 99% at 100 ng/ml concentration when compared with its blocking efficiency at 1000 ng/ml concentration. However, the wild type IL-13 and the mutant IL13.K106R and IL13.R109K have only 86.5%, 86.7% and 80.7% of the cytotoxicity neutralization efficiency with respect to their neutralization efficiency at 1000 ng/ml concentration. […] The high affinity mutant IL13.K105R is used as a ligand to conjugate to liposomes in order to better target the glioma associated IL-13Rα2 receptor."}}}
{"compound": "COc1cccc2c1C(=O)c1c(O)c3c(c(O)c1C2=O)C[C@@](O)(C(=O)CO)C[C@@H]3O[C@H]1C[C@H](N)[C@H](O)[C@H](C)O1", "note": "[free DXR, doxorubicin]", "values": [{"measurement": "intracellular doxorubicin fluorescence (flow cytometry curve shift)", "setting": "U251 glioma cells", "result": "increase in the cell fluorescence"}]}
{"compound": "IL13.K106R: mutant of IL-13", "values": [{"measurement": "cytotoxicity neutralization efficiency with respect to neutralization efficiency at 1000 ng/ml", "setting": "IL-13Rα2", "result": 86.7, "unit": "%"}]}
{"compound": "wild type IL-13: human cytokine interleukin-13, expressed in E. coli as His-tagged protein", "values": [{"measurement": "cytotoxicity neutralization efficiency with respect to neutralization efficiency at 1000 ng/ml", "setting": "IL-13Rα2", "result": 86.5, "unit": "%"}]}
